Several values for one entry are separate records, joined by “and”; a condition that tells them apart may be missing. Identical values can stand only once.
Target: the molecule itself
Experiment: cryo-EM structure

B1: mouse seipin, recombinant, purified from Expi293 cells co-expressing Adig (natural protein, UniProt Q9Z2E9 1-383, looked up)
chain: MVNDPPVPALLWAQEVGHVLAGRARRLMLQFGVLFCTILLLLWVSVFLYGSFYYSYMPTVSHLSPVHFHYRTDCDSSTASLCSFPVANVSLAKSGRDRVLMYGQPYRVTLELELPESPVNQDLGMFLVTVSCYTRGGRIISTSSRSVMLHYRSQLLQVLDTLLFSSLLLFGFAEQKQLLEVELYSDYRENSYVPTTGAIIEIHSKRIQMYGAYLRIHAHFTGLRYLLYNFPMTCAFVGVASNFTFLSVIVLFSYMQWVWGAVWPRHRFSLQVNIRQRDNSHHGAPRRISRHQPGQESTQQSDVTEDGESPEDPSGTEGQLSEEEKPEKRPLNGEEEQEPEASDGSWEDAALLTEANPPTSASASALAPETLGSLRQRPTCSSS
  stoichiometry N: 11 and 12

Reference: article doi:10.1101/2024.07.25.605195 (bioRxiv, 2024)
